{"source": "paper PMC2998437", "about": "“S. aureus MscL Is a Pentamer In Vivo but of Variable Stoichiometries In Vitro: Implications for Detergent-Solubilized Membrane Proteins” (PLoS Biology, 2010)", "key": {"[1]": {"molecular_target": "L10C/L89C SaMscL (S. aureus) (UniProt Q6G9L1)", "assay": "cross-linking; in vivo disulfide trapping of double-cysteine mutants in the cell membrane; cells osmotically shocked (water with 1.5 uM copper phenanthroline, 15 min, 37 C) or mock shocked; non-reducing SDS-PAGE, anti-Penta His Western blot"}, "[2]": {"molecular_target": "the molecule itself", "assay": "SEC-MALS; SaMscL purified in LDAO, then exchanged into C8E5 and measured the following day"}, "[3]": {"molecular_target": "the molecule itself", "assay": "cross-linking; purified protein in LDAO (2.1 mM final); 5 ug protein with 2 mM DSS on ice for 5 min; anti-Penta His Western blot"}, "[4]": {"molecular_target": "the molecule itself", "assay": "cross-linking; in vivo disulfide trapping of double-cysteine mutants in the cell membrane; cells osmotically shocked (water with 1.5 uM copper phenanthroline, 15 min, 37 C) or mock shocked; non-reducing SDS-PAGE, anti-Penta His Western blot"}}}
{"molecule": "L10C/L89C SaMscL (from UniProt Q6G9L1 1-120) (natural protein)", "values": [{"measurement": "stoichiometry N", "setting": "[1]", "value": 5}]}
{"molecule": "S. aureus mechanosensitive channel of large conductance (SaMscL) (natural protein, UniProt Q6G9L1 1-120, looked up, MscL, large-conductance mechanosensitive channel of S. aureus, GenBank CAG43065; printed monomer mass 14.4 kDa; the printed GenBank entry holds; Pentamer in Triton X-100 and C8E5 and in vivo; tetramer in LDAO (copies would then be 4); Expressed from two vectors (pET21a, pB10) with no difference reported; also called S. aureus MscL; source: E. coli PB116 (pET21a), purified (DM extraction, Ni-NTA, …)) MLKEFKEFALKGNVLDLAIAVVMGAAFNKIISSLVENIIMPLIGKIFGSVDFAKEWSFWGIKYGLFIQSVIDFIIIAFALFIFVKIANTLMKKEEAEEEAVVEENVVLLTEIRDLLREKK", "values": [{"measurement": "stoichiometry N", "setting": "[2]", "value": 5}, {"measurement": "stoichiometry N", "setting": "[3]", "value": 4}]}
{"molecule": "L10C/M91C SaMscL (natural protein, also called L10C/M91C protein; source: bacterial cultures induced with 1 mM IPTG, in the cell membrane (cells lysed in sample buffer)) MLKEFKEFACKGNVLDLAIAVVMGAAFNKIISSLVENIIMPLIGKIFGSVDFAKEWSFWGIKYGLFIQSVIDFIIIAFALFIFVKIANTLCKKEEAEEEAVVEENVVLLTEIRDLLREKK", "values": [{"measurement": "stoichiometry N", "setting": "[4]", "value": 5}]}
